Patent US7815907B2, “Antibodies to insulin-like growth factor I receptor” (Amgen Fremont Inc., priority 2001, dated 2010)

Legend:
COS7 IGF-IR = test: Species crossreactivity by immunoprecipitation/Western blot; type: binding, old world monkey; conditions: immunoprecipitation, antibody 1 μg/ml
Protocol: To perform immunoprecipitation experiments, we plated cells in DMEM high glucose media supplemented with L-glutamine (0.29 mg/ml), 10% heat-inactivated FBS, and 500 μg/ml each of geneticin, penicillin and streptomycin to 50% confluence in T25 flasks. We then added 100 μl of an antibody of the invention in Hank's buffered saline solution (HBSS; Gibco BRL) at a concentration of 1 μg/ml. We incubated the plates for 30 minutes at 37° C. in an incubator and then stimulated the cells with IGF-I at 100 ng/ml for 10 minutes at room temperature. We lysed the cells in RIPA buffer (Harlow and Lane, supra) and immunoprecipitated IGF-IR with 2 μg of pan-specific SC-713 anti-IGF-IR antibody (Santa Cruz) plus protein A agarose beads for 1 hour at 4° C. We pelleted the beads and wash three times with PBS/T (PBS+0.1% Tween-20) and then boiled the beads in 40 μl Laemmli buffer containing 5% βME.
The samples prepared as described above were then analyzed by Western blot. We loaded 12 μl of each sample per lane on 4-10% gradient Novex™ gels run with 1×MES buffer (Novex™). Gels were run at 150V for 1 hour or at 200V for approximately 30 minutes. We then transferred the gel to a membrane in Novex™ transfer buffer with 10% methanol either overnight at 100 mA or for 1-1.5 hours at 250 mA. […]

IGF-IR = IGF-IR (Homo sapiens, UniProt P08069); test: IGF-IR and IGF-IR phosphotyrosine levels in 3T3-IGF-IR tumors in vivo (ELISA); design: expressed in transfected cells; host or cells: NIH-3T3 (mouse fibroblasts); species or system athymic (nu/nu) mice
Excerpt: We determined whether the effects of the antibodies of the invention on IGF-IR as described in the previous examples would occur in vivo. We induced tumors in athymic mice according to published methods (V. A. Pollack et al., “Inhibition of epidermal growth factor receptor-associated tyrosine phosphorylation in human carcinomas with CP-358,774: Dynamics of receptor inhibition in situ and antitumor effects in athymic mice,” J. Pharmacol. Exp. Ther. 291:739-748 (1999). Briefly, we injected IGF-IR-transfected NIH-3T3 cells (5×10^6) subcutaneously into 3-4 week-old athymic (nu/nu) mice with 0.2 ml of Matrigel preparation. We then injected mice with an antibody of the invention intraperitoneally after established (i.e. approximately 400 mm^3) tumors formed.
After 24 hours, we extracted the tumors, homogenized them and determined the level of IGF-IR. To determine IGF-IR levels, we diluted the SC-713 antibody in Blocking buffer to a final concentration of […] and added 100 μl to each well of a Reacti-Bind Goat anti-rabbit (GAR) coated plate (Pierce). We incubated the plates at room temperature for 1 hour with shaking and then washed the plates five times with wash buffer. We then weighed tumor samples that had been prepared as described above and homogenized them in lysis buffer (1 ml/100 mg). We diluted 12.5 μl of tumor extract with lysis buffer to a final volume of 100 μl and added this to each well of a 96-well plate. We incubated the plates at room temperature with shaking for 1-2 hours and then washed the plates five times with Wash buffer. We then added 100 μl HRP-PY54 or biotinylated anti-IGF-IR antibody in Blocking buffer to each well and incubated at room temperature with shaking for 30 minutes. We then washed the plates five times with wash buffer and developed the plates. […] We then quantitated the signal by shaking for 10 seconds and measuring OD450nm. […]
Tumors were induced in nude mice as described in Example VIII. […] Tumors were extracted and IGF-IR levels were measured by ELISA as described in Example VIII.

[1] = Pharmacokinetics after single intravenous injection; type: in vivo; conditions: cynomolgus monkeys, 3, 30 or 100 mg/kg intravenously
Protocol: To evaluate the pharmacokinetics of the anti-IGF-IR antibodies, cynomolgus monkeys were injected intravenously with 3, 30 or 100 mg/kg of 2.13.2 antibody in an acetate buffer. Serum was collected from the monkeys at various time points and anti-IGF-IR antibody concentrations in the monkeys were determined for a period of up to ten weeks levels. To quantitate functional serum antibody levels, the extracellular domain of the human IGF-IR (IGF-I-sR, R&D Systems, Catalog # 391GR) was bound to 96-well plates. Monkey serum (diluted between 1:100 and 1:15,000) was added to the assay plates so that each sample would be within the linear range of the standard curve and incubated under conditions in which any anti-IGF-IR antibody would bind to IGF-I-sR. After washing the plates, a labeled anti-human IgG antibody was added to the plates and incubated under conditions in which the anti-human IgG antibody would bind to the anti-IGF-IR antibody. The plates were then washed and developed, and a control standard curve and linear regression fits used to quantitate the amount of anti-IGF-IR antibodies.

[2] = target: T1, extracellular domain of IGF-IR (Homo sapiens, UniProt P08069); test: BIAcore affinity measurement, Protocol 1; type: binding; conditions: BIAcore 3000; antibody captured on protein-A, IGF-IR extracellular domain injected
T1 construct: Different concentrations of the extracellular domain of IGF-IR were injected on the sensorchip
Protocol: We performed affinity measures of purified antibodies by surface plasmon resonance using the BIAcore 3000 instrument, following the manufacturer's protocols.
To perform kinetic analyses, protein-A was immobilized on the sensorchip surfaces of the BIAcore. The sensorchip was then used to capture the anti-IGF-IR antibodies of the present invention. Different concentrations of the extracellular domain of IGF-IR were injected on the sensorchip and the binding and dissociation kinetics of the interactions between the anti-IGF-IR antibodies and the extracellular domain of IGF-IR were analyzed. The data were evaluated with global fit Langmuir 1:1, using baseline drift models available on the BIAevaluation software provided by BIAcore.

[3] = intraperitoneal injection, tumors extracted after 24 hours

2.13.2: human IgG2κ monoclonal antibody specific for IGF-IR from hybridoma 2.13.2 (ATCC PTA-2788)
binding to COS7 IGF-IR (COS7 IGF-IR): able to bind
IGF-IR receptor levels in tumors over time (IGF-IR; 125 μg by intraperitoneal injection): down-regulated
IGF-IR phosphotyrosine (phosphorylated IGF-IR) in tumors (IGF-IR; [3]): decrease
total IGF-IR protein in tumors (IGF-IR; [3]): decrease
dose proportionality of serum amounts [1]: dose-proportional
volume distribution [1]: 74 to 105 mL/kg
Kd [2]: 3.5 nM
